# Measured values published in the supplement of paper PMC10567573.
# B1: C9orf9 (parent)
# chain: TKHKCRQLTKASLKPRGCSKPPWR
# B2: TMEM192 (parent)
# chain: ILGKVILWILHLLLECYIQYHHSK
# Variants of: B1
# Experiment: protein stability index of a GFP-peptide fusion (GPS, HEK-293T) (PSI 1-6); higher = more stable
# Settings: c terminus: a fixed tail appended
# 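Further: lentivirally expressed fusions sorted by FACS into six bins by GFP to DsRed ratio, PSI derived from sequencing read proportions per bin multiplied by bin number.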
row,Variant,protein stability index
1,C18L,3.6
2,C18M,2.58
3,C18N,3.22
4,C18P,3.32
5,C18Q,3.32
6,C18R,3.03
7,C18S,1.35
8,C18T,3.11
9,C18V,2.1
10,C18W,2.06
11,C18Y,2.18
12,S19A,1.5
13,S19C,2.36
14,S19D,2.77
15,S19E,2.02
16,S19F,2.33
17,S19G,2.21
18,S19I,2.08
19,S19K,2.37
20,S19L,3.11
21,S19M,2.94
22,S19N,2.44
23,S19P,1.92
24,S19Q,2.44

row,Variant,protein stability index
1,S19R,3.63
2,S19T,3.02
3,S19V,3.35
4,S19W,2.14
5,S19Y,1.99
6,K20A,2.41
7,K20C,2.23
8,K20D,1.92
9,K20E,2.41
10,K20F,2.32
11,K20G,2.64
12,K20H,2.76
13,K20I,2.37
14,K20L,2.3
15,K20M,1.76
16,K20N,2.95
17,K20P,3.42
18,K20Q,2.45
19,K20R,3.14
20,K20S,2.9
21,K20T,2.21
22,K20V,2.2
23,K20W,1.94
24,K20Y,3.56

row,Variant,protein stability index
1,P21C,2.36
2,P21D,2.93
3,P21E,2.79
4,P21F,2.79
5,P21G,2.81
6,P21H,3.41
7,P21I,3.18
8,P21K,2.76
9,P21L,3.59
10,P21M,2.64
11,P21N,2.9
12,P21Q,3.48
13,P21S,2.4
14,P21T,2.56
15,P21V,3.09
16,P21W,2.28
17,P21Y,2.13
18,P22A,2.97
19,P22C,1.83
20,P22D,2.38
21,P22E,2.98
22,P22F,1.73
23,P22G,3.09
24,P22H,2.98

row,Variant,protein stability index
1,P22I,2.02
2,P22K,3.03
3,P22M,2.76
4,P22N,2.32
5,P22Q,2.99
6,P22R,2.51
7,P22S,3.14
8,P22T,3.03
9,P22W,1.89
10,P22Y,2.62
11,W23A,3.89
12,W23C,2.89
13,W23D,4.3
14,W23E,4.29
15,W23F,2.67
16,W23G,2.73
17,W23H,4.46
18,W23I,3.56
19,W23K,4.63
20,W23L,3.72
21,W23M,3.05
22,W23N,4.32
23,W23P,4.18
24,W23Q,3.46

row,Variant,protein stability index
1,W23R,3.96
2,W23S,2.84
3,W23T,3.93
4,W23V,3.28
5,W23Y,3.86
6,R24A,2.95
7,R24C,1.99
8,R24D,3.17
9,R24E,3.22
10,R24F,2.14
11,R24G,2.12
12,R24H,2.82
13,R24I,1.43
14,R24K,3.63
15,R24L,1.72
16,R24M,2.57
17,R24N,2.79
18,R24P,2.53
19,R24Q,2.2
20,R24S,2.18
21,R24T,2.73
22,R24V,2.14
23,R24W,2.51
24,R24Y,2.59

# Variants of: B2
# Experiment: as above
# Settings: c terminus: a fixed tail appended
row,Variant,protein stability index
1,I1C,2.82
2,I1D,2.93
3,I1E,3.42
4,I1F,2.81
5,I1G,3.43
6,I1H,2.88
7,I1K,1.79
8,I1L,3.4
9,I1M,3.36
10,I1N,3.45
11,I1P,2.56
12,I1Q,2.5
13,I1R,2.92
14,I1S,3.41
15,I1T,3.49
16,I1V,3.68
17,I1W,2.22
18,L2A,2.41
19,L2D,2.04
20,L2E,2.32
21,L2F,2.86
22,L2G,3.77
23,L2H,1.91
24,L2K,3.23

row,Variant,protein stability index
1,L2N,2.93
2,L2P,2.74
3,L2Q,2.41
4,L2R,2.75
5,L2S,2.82
6,L2T,3.29
7,L2V,3.54
8,L2W,2.18
9,L2Y,2.77
10,G3C,3.41
11,G3D,3.06
12,G3E,2.62
13,G3F,2.9
14,G3H,2.67
15,G3I,2.58
16,G3K,3.66
17,G3L,2.76
18,G3M,2.76
19,G3N,2.87
20,G3P,3.89
21,G3Q,3.27
22,G3R,3.69
23,G3S,1.95
24,G3T,3.14

row,Variant,protein stability index
1,G3V,2.32
2,G3W,2.58
3,G3Y,3.82
4,K4A,2.97
5,K4D,3.04
6,K4E,2.46
7,K4F,3.11
8,K4G,3.12
9,K4H,4.67
10,K4I,2.81
11,K4L,3.75
12,K4M,3.11
13,K4N,2.98
14,K4P,1.73
15,K4R,1.83
16,K4S,2.9
17,K4T,2.8
18,K4V,2.92
19,K4W,2.93
20,K4Y,2.87
21,V5A,2.85
22,V5C,2.73
23,V5D,3.49
24,V5E,3.81

row,Variant,protein stability index
1,V5F,2.7
2,V5G,3.88
3,V5H,2.2
4,V5I,3.3
5,V5K,2.08
6,V5M,3.23
7,V5N,2.55
8,V5P,1.85
9,V5Q,2.86
10,V5R,2.43
11,V5S,3.18
12,V5T,2.49
13,V5W,3.91
14,V5Y,4.62
15,I6A,1.4
16,I6C,2.94
17,I6D,3.23
18,I6E,2.55
19,I6H,3.07
20,I6K,3.39
21,I6L,3.74
22,I6M,2.24
23,I6N,2.86
24,I6P,2.73

row,Variant,protein stability index
1,I6Q,3.64
2,I6R,2.74
3,I6S,3.76
4,I6T,3.07
5,I6V,3.41
6,I6W,2.72
7,I6Y,2.98
8,L7C,2.19
9,L7D,2.86
10,L7E,3.07
11,L7F,2.7
12,L7G,4.45
13,L7H,2.6
14,L7I,2.24
15,L7K,2.36
16,L7M,1.54
17,L7N,2.51
18,L7P,1.85
19,L7Q,3.32
20,L7R,1.75
21,L7S,3.17
22,L7T,3.57
23,L7V,1.74
24,L7W,3.41

row,Variant,protein stability index
1,L7Y,2.85
2,W8A,2.92
3,W8D,2.44
4,W8E,2.47
5,W8F,3.29
6,W8G,2.02
7,W8H,3.31
8,W8I,2.08
9,W8K,2.89
10,W8L,2.26
11,W8M,3.22
12,W8N,3.71
13,W8P,2.6
14,W8Q,2.89
15,W8R,2.25
16,W8S,3.6
17,W8T,3.65
18,W8V,3.11
19,W8Y,2.98
20,I9C,2.61
21,I9D,2.89
22,I9E,4.08
23,I9F,3.71
24,I9G,1.96

row,Variant,protein stability index
1,I9H,3.16
2,I9K,3.67
3,I9L,2.68
4,I9M,2.58
5,I9N,4.27
6,I9P,3.29
7,I9Q,2.8
8,I9R,2.96
9,I9T,4.05
10,I9V,3.3
11,I9W,3.09
12,I9Y,2.94
13,L10A,2.54
14,L10C,1.5
15,L10D,2.76
16,L10E,5.03
17,L10F,3.04
18,L10I,3.22
19,L10K,1.75
20,L10M,3.36
21,L10N,3.04
22,L10P,3.36
23,L10R,1.98
24,L10S,2.3

row,Variant,protein stability index
1,L10T,2.19
2,L10V,2.85
3,L10W,3.83
4,H11A,2.76
5,H11C,3.27
6,H11F,3.18
7,H11G,2.09
8,H11I,3.89
9,H11K,3.6
10,H11M,4.49
11,H11N,2.91
12,H11P,3.26
13,H11Q,2.29
14,H11R,3.16
15,H11S,2.22
16,H11T,2.63
17,H11V,3.77
18,H11W,2.94
19,H11Y,2.56
20,L12A,3
21,L12D,3.31
22,L12E,3.21
23,L12F,2.47
24,L12G,3.98

row,Variant,protein stability index
1,L12H,2.19
2,L12K,2.69
3,L12M,2.29
4,L12N,3.52
5,L12P,3.07
6,L12Q,4.15
7,L12R,2.87
8,L12S,3.61
9,L12T,3.88
10,L12V,2.88
11,L12W,3.59
12,L12Y,2.14
13,L13A,3.26
14,L13C,2.76
15,L13D,2.47
16,L13F,2.5
17,L13G,2.25
18,L13H,2.83
19,L13I,2.04
20,L13K,2.9
21,L13M,3.1
22,L13N,3.18
